Conditions in all cases: both partners purified
In test [1] the target is T1, APLF FHA domain (forkhead-associated domain of aprataxin and PNKP-like factor) (human, UniProt Q8IW19 1-105).
T1 sequence: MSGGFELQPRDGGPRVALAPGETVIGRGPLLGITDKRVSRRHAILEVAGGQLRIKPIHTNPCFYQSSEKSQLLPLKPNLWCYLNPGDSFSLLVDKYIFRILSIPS
Put plainly: fluorescence polarisation; pH 7.4; apparent dissociation constants; FITC-Gly-Gly-labelled peptide with APLF FHA; 25 mM HEPES, 25 mM MES, 150 mM NaCl, 1 mM EDTA, 2 mM DTT, 0.05% Tween 20; room temperature; single-site fit.

Test [2] has as its target T1, APLF FHA domain (forkhead-associated …). Description: fluorescence polarisation; pH 5.5; apparent dissociation constants; FITC-Gly-Gly-labelled peptide with APLF FHA; 25 mM HEPES, 25 mM MES, 150 mM NaCl, 1 mM EDTA, 2 mM DTT, 0.05% Tween 20; room temperature; single-site fit.
Test [3] shares this target. Put plainly: fluorescence polarisation; pH 6.0; apparent dissociation constants; FITC-Gly-Gly-labelled peptide with APLF FHA; 25 mM HEPES, 25 mM MES, 150 mM NaCl, 1 mM EDTA, 2 mM DTT, 0.05% Tween 20; room temperature; single-site fit.
Test [4] shares this target. Description: fluorescence polarisation; pH 6.5; apparent dissociation constants; FITC-Gly-Gly-labelled peptide with APLF FHA; 25 mM HEPES, 25 mM MES, 150 mM NaCl, 1 mM EDTA, 2 mM DTT, 0.05% Tween 20; room temperature; single-site fit.
For test [5] the target is unchanged. Put plainly: fluorescence polarisation; pH 7.0; apparent dissociation constants; FITC-Gly-Gly-labelled peptide with APLF FHA; 25 mM HEPES, 25 mM MES, 150 mM NaCl, 1 mM EDTA, 2 mM DTT, 0.05% Tween 20; room temperature; single-site fit.
Test [6] shares this target. Put plainly: NMR titration; 2D 1H,15N-HSQC of 0.1 mM U-[15N] APLF-FHA as a function of phosphopeptide concentration (0–800 μM); 25 mM HEPES, 25 mM MES, 150 mM NaCl, 1 mM EDTA, pH 7.4; 35°C; lineshape simulation (two-site exchange) for Kd and τB of the 18-residue peptide.
Test [7] shares this target. The test is described as above. The source holds these as a separate data set.
Test [8] shares this target. Description: crystal structure; sitting drop vapor diffusion, 20°C; APLF FHA 9–10 mg/ml with peptide at a 1:1 peptide:protein ratio.

Square brackets hold non-standard residues; d marks the D form. Ends that are not written are not given here. * marks the point of attachment. FITC = O=C1OC2(c3ccc(O)cc3Oc3cc(O)ccc32)c2ccc(NC(=S)*)cc21; pT = C[C@@H](OP(=O)(O)O)[C@H](N)C(=O)O; pS = N[C@@H](COP(=O)(O)O)C(=O)O

Regarding {FITC}-GGQEENGEDPYAG[pS][pT]DENTDSEEHQE [FITC-Gly-Gly-XRCC1_(pSpT-24) diphosphopeptide], the Kd in test [1] was 160 ± 20 nM; in test [2], 6650 ± 2350 nM; in test [3], 3650 ± 910 nM; in test [4], 320 ± 90 nM; in test [5], 200 ± 30 nM. Turning to DPYAG[pS][pT]DENTDSEEHQE [XRCC1_(pSpT-18) diphosphopeptide, unlabelled (NMR studies)], the Kd in test [6] was 4000 nM. In the case of {FITC}-GGDPYAG[pS][pT]DENEDEEEHQE [FITC-Gly-Gly-XRCC1_(pSpTEE-18) diphosphopeptide], the Kd in test [1] was found to be 300 ± 70 nM.

With PYAG[pS][pT]DEN [XRCC1_(pSpT-9) diphosphopeptide], the Kd in test [7] is 80000 nM. In the case of PYAGE[pT]DEN [XRCC1_(EpT-9) monophosphopeptide], in test [8], the binding result is given as “binds”.

The values are drawn from article PMC5716189 (Nucleic Acids Research, 2017).
